Where “and” joins values, the source holds several entries; their conditions need not be identical. Equal values may be shown once.
Tests used:
[1] = target: endogenous cofilin (human (endogenous in platelets and HUVEC)) (UniProt P23528); assay: cross-linking; intact endothelial cells (HUVEC, also transfected) in suspension, BMOE or BMH 1 mM or DMSO, 37 °C, one hour; Laemmli lysis, SDS-PAGE, immunoblot
[2] = target: endogenous cofilin (human (endogenous in platelets and HUVEC)) (UniProt P23528); assay: cross-linking; human washed platelets (resting, or stimulated with thrombin, with or without Y27632) lysed in NP-40 lysis buffer with BMOE or BMH (0.2 mM; 0.1 mM BMOE in Figure 7), 20 minutes on ice; immunoblot
[3] = target: recombinant (His)6-tagged human cofilin (human) (UniProt P23528); assay: cross-linking; phosphorylated (by GST-LIMK2) and unphosphorylated His-cofilin (16 μg) cross-linked with 2 and 20 mM BMOE
[4] = target: recombinant (His)6-tagged human cofilin (human) (UniProt P23528); assay: cross-linking; recombinant His-cofilin 10 µM to 40 µM in PBS pH 7.2, BMOE (two fold molar excess) or DMSO, one hour at room temperature; SDS-PAGE, Coomassie blue; oligomers only at >10 µM

Row | stoichiometry N [1] | stoichiometry N [2] | stoichiometry N [3] | stoichiometry N [4] | Substance
1 | 4 | 4 |  |  | endogenous cofilin (from UniProt P23528 1-166) (natural protein)
2 |  |  | 2 and 3 | 2 and 4 and 5 | recombinant (His)6-tagged human cofilin (from UniProt P23528 1-166) (natural protein)

— PMC3738525
